From patent US20240325555A1 (LANOVA MEDICINES, published 2024) come the findings set out here.

For one assay, the target named is cynomolgus LIV-1 (cynomolgus, UniProt A0A2K5WH46 30-741). The assay can be described thus: FACS, cyno LIV-1 cells.
Another assay concerns the target T1, human LIV-1 (human, UniProt Q13433 29-755).
T1 construct: whole, on cells; also called H-LIV1
T1 sequence (looked up): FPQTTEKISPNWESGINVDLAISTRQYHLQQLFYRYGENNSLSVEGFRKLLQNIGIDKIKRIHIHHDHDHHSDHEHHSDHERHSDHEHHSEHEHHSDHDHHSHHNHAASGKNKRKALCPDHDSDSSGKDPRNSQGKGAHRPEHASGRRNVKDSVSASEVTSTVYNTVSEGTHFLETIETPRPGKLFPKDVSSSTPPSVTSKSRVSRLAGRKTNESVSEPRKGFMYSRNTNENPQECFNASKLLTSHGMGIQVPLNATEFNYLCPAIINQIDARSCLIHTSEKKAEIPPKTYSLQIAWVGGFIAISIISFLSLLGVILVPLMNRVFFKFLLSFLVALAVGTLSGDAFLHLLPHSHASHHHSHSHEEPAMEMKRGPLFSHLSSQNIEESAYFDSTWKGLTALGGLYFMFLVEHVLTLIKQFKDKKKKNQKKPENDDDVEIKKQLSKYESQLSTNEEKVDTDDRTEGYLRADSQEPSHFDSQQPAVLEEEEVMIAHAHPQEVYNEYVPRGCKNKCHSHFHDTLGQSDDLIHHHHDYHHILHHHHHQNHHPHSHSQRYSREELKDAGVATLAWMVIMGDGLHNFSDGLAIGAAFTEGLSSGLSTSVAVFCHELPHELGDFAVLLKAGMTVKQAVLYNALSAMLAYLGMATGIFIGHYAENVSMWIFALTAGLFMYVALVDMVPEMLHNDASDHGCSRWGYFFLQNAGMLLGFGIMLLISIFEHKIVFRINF
Kind of assay: FACS, human LIV-1 cells. Here is the method:
In this example, cell based binding of humanized antibodies (hu Abs) on human LIV-1-expressing cells were assessed using flow cytometry.
Cell based binding of hu-Abs on human LIV-1 expressing cells were assessed using flow cytometry. Briefly, the HEK293/H_LIV-1 cells were incubated with hu-Abs (from 100 nM, 6 folds dilution, 8 points). After incubation at 4° C. for 60 minutes, the cells were washed with FACS buffer twice, then stained with fluorescent conjugated secondary antibody at 4° C. for 30 minutes. After that the cells were washed twice and analyzed by flow cytometry.
In general terms: Flow cytometry measures light scatter and fluorescence of single cells or particles in a stream.

Sequence of cynomolgus LIV-1 (A0A2K5WH46 entry or part of it): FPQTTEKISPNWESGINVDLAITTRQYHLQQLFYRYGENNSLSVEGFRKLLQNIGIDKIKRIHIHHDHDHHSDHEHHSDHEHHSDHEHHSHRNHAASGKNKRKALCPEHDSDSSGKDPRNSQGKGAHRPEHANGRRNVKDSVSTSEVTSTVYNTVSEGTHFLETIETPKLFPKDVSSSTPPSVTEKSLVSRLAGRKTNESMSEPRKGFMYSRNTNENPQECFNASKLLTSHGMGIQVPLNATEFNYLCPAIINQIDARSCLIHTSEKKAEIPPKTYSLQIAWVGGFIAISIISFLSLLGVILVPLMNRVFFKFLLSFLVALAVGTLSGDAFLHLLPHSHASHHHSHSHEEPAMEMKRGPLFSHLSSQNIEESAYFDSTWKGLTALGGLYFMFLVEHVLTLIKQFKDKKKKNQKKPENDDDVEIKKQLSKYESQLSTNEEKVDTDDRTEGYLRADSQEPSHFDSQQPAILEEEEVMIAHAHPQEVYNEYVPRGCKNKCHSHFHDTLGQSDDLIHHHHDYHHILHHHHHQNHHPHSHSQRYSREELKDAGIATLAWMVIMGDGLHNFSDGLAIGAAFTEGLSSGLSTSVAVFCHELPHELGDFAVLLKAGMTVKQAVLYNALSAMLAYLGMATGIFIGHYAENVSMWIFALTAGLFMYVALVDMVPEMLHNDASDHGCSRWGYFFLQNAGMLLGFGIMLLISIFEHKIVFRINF

B1: 290F10G10.p1.Z5 (antibody, V domains shown)
VH: EVQLVQSGAEVKKPGASVKVSCKASGYTFTSYWIHWVRQAPGQGLEWMGTIYPGDADTRSTQKFKDRVTVTADKSTSTVYMELSSLRSEDTAVYYCARSLIHDDYDKYYFDYWGQGTTVTVSS
VL: DIQMTQSPSSLSASVGDRVTITCKARQDINKYIAWYQQKPGKAPKLLIHYTSILQPGIPSRFSGSGSGRDYTFTISSLQPEDIATYYCLQYDYFFTFGGGTKVEIK
Take B1: the EC50 in the assay with cynomolgus LIV-1 came to 500 pM; in the assay with human LIV-1, 320 pM. Also, the “Top (MFI)” value with cynomolgus LIV-1 worked out at 7370 MFI; with human LIV-1, 7390 MFI.

B2: 290F10G10.p1.Z13 (antibody, V domains shown)
VH: EVQLVQSGAEVKKPGASVKVSCKASGYTFTSYWIHWVRQAPGQGLEWIGTIYPGDADTRSTQKFKDKATVTADKSTSTVYMELSSLRSEDTAVYYCTRSLIHDDYDKYYFDYWGQGTTVTVSS
VL: DIQMTQSPSSLSASVGDRVTITCKARQDINKYIAWYQQKPGKAPKLLIYYTSILQPGVPSRFSGSGSGRDYTFTISSLQPEDIATYYCLQYDYFFTFGGGTKVEIK
Consider B2, for which the 50% effective concentration (EC50) was found to be 460 pM in the assay with cynomolgus LIV-1 and 320 pM with human LIV-1. Moreover, the “Top (MFI)” value with cynomolgus LIV-1 came out at 7180 MFI; with human LIV-1, 7630 MFI.

B3: 290F10G10.p1.Z10 (antibody, V domains shown)
VH: EVQLVQSGAEVKKPGASVKVSCKASGYTFTSYWIHWVRQAPGQGLEWMGTIYPGDADTRSTQKFKDRVTVTADKSTSTVYMELSSLRSEDTAVYYCTRSLIHDDYDKYYFDYWGQGTTVTVSS
VL: DIQMTQSPSSLSASVGDRVTITCKARQDINKYIAWYQQKPGKAPKLLIYYTSILQPGVPSRFSGSGSGRDYTFTISSLQPEDIATYYCLQYDYFFTFGGGTKVEIK
With B3, in the assay with cynomolgus LIV-1, the concentration giving a half-maximal response (EC50) was determined as 690 pM and the “Top (MFI)” value is 6740 MFI. Further, in the assay with human LIV-1, the EC50 was 490 pM and the “Top (MFI)” value is 7290 MFI.

B4: 290F10G10.p1.Z8 (antibody, V domains shown)
VH: EVQLVQSGAEVKKPGASVKVSCKASGYTFTSYWIHWVRQAPGQGLEWIGTIYPGDADTRSTQKFKDKATVTADKSTSTVYMELSSLRSEDTAVYYCARSLIHDDYDKYYFDYWGQGTTVTVSS
VL: DIQMTQSPSSLSASVGDRVTITCKARQDINKYIAWYQQKPGKAPKLLIHYTSILQPGIPSRFSGSGSGRDYTFTISSLQPEDIATYYCLQYDYFFTFGGGTKVEIK
Regarding B4, the 50% effective concentration (EC50) turned out to be 360 pM with cynomolgus LIV-1 and 270 pM in the assay with human LIV-1. In addition, the “Top (MFI)” value is 7190 MFI in the assay with cynomolgus LIV-1 and 7540 MFI in the assay with human LIV-1.

B5: 290F10G10.p1.Z9 (antibody, V domains shown)
VH: EVQLVQSGAEVKKPGASVKVSCKASGYTFTSYWIHWVRQAPGQGLEWIGTIYPGDADTRSTQKFKDKATVTADKSTSTVYMELSSLRSEDTAVYYCARSLIHDDYDKYYFDYWGQGTTVTVSS
VL: DIQMTQSPSSLSASVGDRVTITCKARQDINKYIAWYQHKPGKGPKLLIHYTSILQPGIPSRFSGSGSGRDYTFTISSLQPEDIATYYCLQYDYFFTFGGGTKVEIK
Consider B5, for which, in the assay with cynomolgus LIV-1, the response was half-maximal at 680 pM (EC50) and the “Top (MFI)” value was determined as 7630 MFI. In the assay with human LIV-1, a half-maximal effect (EC50) was put at 510 pM and the “Top (MFI)” value stood at 7940 MFI.

B6: 290F10G10.p1.Z4 (antibody, V domains shown)
VH: EVQLVQSGAEVKKPGASVKVSCKASGYTFTSYWIHWVRQAPGQGLEWMGTIYPGDADTRSTQKFKDRVTVTADKSTSTVYMELSSLRSEDTAVYYCARSLIHDDYDKYYFDYWGQGTTVTVSS
VL: DIQMTQSPSSLSASVGDRVTITCKARQDINKYIAWYQQKPGKAPKLLIYYTSILQPGVPSRFSGSGSGRDYTFTISSLQPEDIATYYCLQYDYFFTFGGGTKVEIK
In the case of B6, in the assay with cynomolgus LIV-1, the 50% effective concentration (EC50) is 340 pM and the “Top (MFI)” value is 7140 MFI. Further, in the assay with human LIV-1, the concentration giving a half-maximal response (EC50) worked out at 240 pM and the “Top (MFI)” value turned out to be 7790 MFI.

B7: 290F10G10.p1.Z15 (antibody, V domains shown)
VH: EVQLVQSGAEVKKPGASVKVSCKASGYTFTSYWIHWVRQAPGQGLEWIGTIYPGDADTRSTQKFKDKATVTADKSTSTVYMELSSLRSEDTAVYYCTRSLIHDDYDKYYFDYWGQGTTVTVSS
VL: DIQMTQSPSSLSASVGDRVTITCKARQDINKYIAWYQHKPGKGPKLLIHYTSILQPGIPSRFSGSGSGRDYTFTISSLQPEDIATYYCLQYDYFFTFGGGTKVEIK
With B7, in the assay with cynomolgus LIV-1, a half-maximal response (EC50) required 360 pM and the “Top (MFI)” value amounted to 7210 MFI. Moreover, in the assay with human LIV-1, the EC50 turned out to be 270 pM and the “Top (MFI)” value was determined as 7550 MFI.

B8: 290F10G10.p1.Z12 (antibody, V domains shown)
VH: EVQLVQSGAEVKKPGASVKVSCKASGYTFTSYWIHWVRQAPGQGLEWMGTIYPGDADTRSTQKFKDRVTVTADKSTSTVYMELSSLRSEDTAVYYCTRSLIHDDYDKYYFDYWGQGTTVTVSS
VL: DIQMTQSPSSLSASVGDRVTITCKARQDINKYIAWYQHKPGKGPKLLIHYTSILQPGIPSRFSGSGSGRDYTFTISSLQPEDIATYYCLQYDYFFTFGGGTKVEIK
As for B8, in the assay with cynomolgus LIV-1, the EC50 came out at 380 pM and the “Top (MFI)” value was 7510 MFI. In the assay with human LIV-1, the 50% effective concentration (EC50) was determined as 260 pM and the “Top (MFI)” value was determined as 7920 MFI.

B9: 290F10G10.p1.Z11 (antibody, V domains shown)
VH: EVQLVQSGAEVKKPGASVKVSCKASGYTFTSYWIHWVRQAPGQGLEWMGTIYPGDADTRSTQKFKDRVTVTADKSTSTVYMELSSLRSEDTAVYYCTRSLIHDDYDKYYFDYWGQGTTVTVSS
VL: DIQMTQSPSSLSASVGDRVTITCKARQDINKYIAWYQQKPGKAPKLLIHYTSILQPGIPSRFSGSGSGRDYTFTISSLQPEDIATYYCLQYDYFFTFGGGTKVEIK
As to B9, in the assay with cynomolgus LIV-1, the EC50 was 320 pM and the “Top (MFI)” value was 7410 MFI. Also, in the assay with human LIV-1, a half-maximal effect (EC50) was put at 250 pM and the “Top (MFI)” value is 7820 MFI.

B10: 290F10G10.p1.Z14 (antibody, V domains shown)
VH: EVQLVQSGAEVKKPGASVKVSCKASGYTFTSYWIHWVRQAPGQGLEWIGTIYPGDADTRSTQKFKDKATVTADKSTSTVYMELSSLRSEDTAVYYCTRSLIHDDYDKYYFDYWGQGTTVTVSS
VL: DIQMTQSPSSLSASVGDRVTITCKARQDINKYIAWYQQKPGKAPKLLIHYTSILQPGIPSRFSGSGSGRDYTFTISSLQPEDIATYYCLQYDYFFTFGGGTKVEIK
For B10, the EC50 in the assay with cynomolgus LIV-1 stood at 480 pM; with human LIV-1 it was 300 pM. Also, the “Top (MFI)” value in the assay with cynomolgus LIV-1 stood at 7220 MFI; with human LIV-1 it was 7410 MFI.

B11: 290F10G10.p1.Z7 (antibody, V domains shown)
VH: EVQLVQSGAEVKKPGASVKVSCKASGYTFTSYWIHWVRQAPGQGLEWIGTIYPGDADTRSTQKFKDKATVTADKSTSTVYMELSSLRSEDTAVYYCARSLIHDDYDKYYFDYWGQGTTVTVSS
VL: DIQMTQSPSSLSASVGDRVTITCKARQDINKYIAWYQQKPGKAPKLLIYYTSILQPGVPSRFSGSGSGRDYTFTISSLQPEDIATYYCLQYDYFFTFGGGTKVEIK
In the case of B11, the 50% effective concentration (EC50) was 370 pM in the assay with cynomolgus LIV-1 and 280 pM with human LIV-1. Also, the entries for the “Top (MFI)” value in the assay with cynomolgus LIV-1 and in the assay with human LIV-1 were 7150 MFI and 7680 MFI, respectively.

B12: 290F10G10.p1.Z1 (antibody, V domains shown)
VH: EVQLVQSGAEVKKPGASVKVSCKASGYTFTSYWIHWVRQAPGQGLEWMGTIYPGDADTRSTQKFKDRVTMTADTSTSTVYMELSSLRSEDTAVYYCARSLIHDDYDKYYFDYWGQGTTVTVSS
VL: DIQMTQSPSSLSASVGDRVTITCKARQDINKYIAWYQQKPGKAPKLLIYYTSILQPGVPSRFSGSGSGRDYTFTISSLQPEDIATYYCLQYDYFFTFGGGTKVEIK
With B12, the EC50 with cynomolgus LIV-1 is 850 pM; in the assay with human LIV-1 it was 560 pM. The “Top (MFI)” value in the assay with cynomolgus LIV-1 stood at 7190 MFI; with human LIV-1, 7540 MFI.

B13: 290F10G10.p1.Z3 (antibody, V domains shown)
VH: EVQLVQSGAEVKKPGASVKVSCKASGYTFTSYWIHWVRQAPGQGLEWMGTIYPGDADTRSTQKFKDRVTMTADTSTSTVYMELSSLRSEDTAVYYCARSLIHDDYDKYYFDYWGQGTTVTVSS
VL: DIQMTQSPSSLSASVGDRVTITCKARQDINKYIAWYQHKPGKGPKLLIHYTSILQPGIPSRFSGSGSGRDYTFTISSLQPEDIATYYCLQYDYFFTFGGGTKVEIK
Regarding B13, in the assay with cynomolgus LIV-1, the concentration for a half-maximal effect (EC50) amounted to 400 pM and the “Top (MFI)” value turned out to be 6750 MFI. Moreover, in the assay with human LIV-1, the EC50 came to 270 pM and the “Top (MFI)” value came out at 7600 MFI.

B14: 290F10G10.p1.Z6 (antibody, V domains shown)
VH: EVQLVQSGAEVKKPGASVKVSCKASGYTFTSYWIHWVRQAPGQGLEWMGTIYPGDADTRSTQKFKDRVTVTADKSTSTVYMELSSLRSEDTAVYYCARSLIHDDYDKYYFDYWGQGTTVTVSS
VL: DIQMTQSPSSLSASVGDRVTITCKARQDINKYIAWYQHKPGKGPKLLIHYTSILQPGIPSRFSGSGSGRDYTFTISSLQPEDIATYYCLQYDYFFTFGGGTKVEIK
Regarding B14, the figures for the EC50 with cynomolgus LIV-1 and with human LIV-1 were 460 pM and 350 pM, respectively. Further, the “Top (MFI)” value amounted to 6890 MFI with cynomolgus LIV-1 and 7420 MFI with human LIV-1.

As usually defined, the EC50 is the concentration giving half of the maximal effect. A low value points to higher potency in that assay.
